Legend:
fibrin gel = experiment: Matrix breakdown assay; assay type: biochemical; settings: 60° C.; images at various timepoints
Experimental: • Add proteinase K (10 mg) to PBS to make a total volume of 1 ml. • Mix well on a vortex mixer until dissolved.
• Add 0.9 ml of 3% v/v PEG-DA fluid gel prepared according to Example 5.3 to an Eppendorf. • To each gel add 0.1 ml of active in PBS. • Mix well using a vortex mixer. • Refrigerate for 24 hours before testing.
0.5 ml of fibrin gel (8.5 mg/ml) was formed in the wells of a 24 well plate. • 0.5 ml of PBS was added to each well. • 0.1 ml of fluid gel containing active was added to a trans-well insert and placed above the fibrin gel. • Samples were incubated at 60° C. to activate the proteinase K. • Images were taken at various timepoints and compared to (a) the control wells containing only fibrin gel+PBS; and (b) wells containing fibrin gel+proteinase k (no fluid gel carrier).

[1] = Release assay of active agents from PEG-DA fluid gel (trans-well, UV/Vis); assay type: physicochemical; settings: 3% v/v PEG-DA fluid gel (500 rpm), PBS 37° C., 5 hrs
Experimental: • Active amounts: […] • Standard concentrations of active in PBS were prepared. • Standards were pipetted into a quartz cuvette (1 mm pathlength). • […] spectroscopy was used to measure absorbance between 200 and 700 nm wavelength. • Curves were plotted and used to determine standard curves which were used to determine concentrations. • 0.5 ml PBS was added to the well of a 24 well plate. • The PBS was incubated at 37° C. to equilibrate. 0.1 ml of the fluid gel containing active was placed in a trans-well insert. • The trans-well insert was placed into a well containing PBS. • After a given time period the trans-well insert was removed and placed in a fresh well of PBS. • The release media was then removed and analysed using […] spectroscopy. Concentrations were derived from the standard curves and cumulative release plotted as a function of time.

B1: Proteinase K: extracellular matrix remodelling agent, proteinase (protein, UniProt P06873 106-384, looked up)
Proteinase K: AAQTNAPWGLARISSTSPGTSTYYYDESAGQGSCVYVIDTGIEASHPEFEGRAQMVKTYYYSSRDGNGHGTHCAGTVGSRTYGVAKKTQLFGVKVLDDNGSGQYSTIIAGMDFVASDKNNRNCPKGVVASLSLGGGYSSSVNSAAARLQSSGVMVAVAAGNNNADARNYSPASEPSVCTVGASDRYDRRSSFSNYGSVLDIFGPGTSILSTWIGGSTRSISGTSMATPHVAGLAAYLMTLGKTTAASACRYIADTANKGDLSNIPFGTVNLLAYNNYQA
fibrin gel break down (fibrin gel): faster | release of active agent from fluid gel [1]: able to release
